Measurements reported in patent publication US20110118131A1 (published 2011).

biological target: T1, IL-1β (UniProt P01584 117-269); experiment: Biacore, periplasmic extract
T1 construct: Antigen immobilised on the Biacore chip

Binder	fold difference in affinity vs original [fold]	binding result
XPA23 light chain R31L (Fab, V domains shown) VH: EVQLLESGGGLVQPGGSLRLSCAASGFTFSKYFMFWVRQAPGKGLEWVSVISPSGGMTRYADSVKGRFTISRDNSKNTLYLQMNSLRAEDTAVYYCARVGYGGNSDYWGQGTLVTVSS VL: DIQMTQSPSSVSASVGDRLTIICRASQDINLWLAWYQQTPGNAPKLLIHSATSLQSGVPSRFSGSGSGTDFTLTINSLQPEDFATYYCQQADSFPLTFGGGTKVEIK	0.51	–
XPA23 light chain R31T (Fab, V domains shown) VH: EVQLLESGGGLVQPGGSLRLSCAASGFTFSKYFMFWVRQAPGKGLEWVSVISPSGGMTRYADSVKGRFTISRDNSKNTLYLQMNSLRAEDTAVYYCARVGYGGNSDYWGQGTLVTVSS VL: DIQMTQSPSSVSASVGDRLTIICRASQDINTWLAWYQQTPGNAPKLLIHSATSLQSGVPSRFSGSGSGTDFTLTINSLQPEDFATYYCQQADSFPLTFGGGTKVEIK	0.24	–
XPA23 light chain S50A (Fab, V domains shown) VH: EVQLLESGGGLVQPGGSLRLSCAASGFTFSKYFMFWVRQAPGKGLEWVSVISPSGGMTRYADSVKGRFTISRDNSKNTLYLQMNSLRAEDTAVYYCARVGYGGNSDYWGQGTLVTVSS VL: DIQMTQSPSSVSASVGDRLTIICRASQDINRWLAWYQQTPGNAPKLLIHAATSLQSGVPSRFSGSGSGTDFTLTINSLQPEDFATYYCQQADSFPLTFGGGTKVEIK	0.13	–
XPA23 light chain R31S (Fab, V domains shown) VH: EVQLLESGGGLVQPGGSLRLSCAASGFTFSKYFMFWVRQAPGKGLEWVSVISPSGGMTRYADSVKGRFTISRDNSKNTLYLQMNSLRAEDTAVYYCARVGYGGNSDYWGQGTLVTVSS VL: DIQMTQSPSSVSASVGDRLTIICRASQDINSWLAWYQQTPGNAPKLLIHSATSLQSGVPSRFSGSGSGTDFTLTINSLQPEDFATYYCQQADSFPLTFGGGTKVEIK	0.44	–
XPA23 light chain S50L (Fab, V domains shown) VH: EVQLLESGGGLVQPGGSLRLSCAASGFTFSKYFMFWVRQAPGKGLEWVSVISPSGGMTRYADSVKGRFTISRDNSKNTLYLQMNSLRAEDTAVYYCARVGYGGNSDYWGQGTLVTVSS VL: DIQMTQSPSSVSASVGDRLTIICRASQDINRWLAWYQQTPGNAPKLLIHLATSLQSGVPSRFSGSGSGTDFTLTINSLQPEDFATYYCQQADSFPLTFGGGTKVEIK	0.49	–
XPA23 light chain S50K (Fab, V domains shown) VH: EVQLLESGGGLVQPGGSLRLSCAASGFTFSKYFMFWVRQAPGKGLEWVSVISPSGGMTRYADSVKGRFTISRDNSKNTLYLQMNSLRAEDTAVYYCARVGYGGNSDYWGQGTLVTVSS VL: DIQMTQSPSSVSASVGDRLTIICRASQDINRWLAWYQQTPGNAPKLLIHKATSLQSGVPSRFSGSGSGTDFTLTINSLQPEDFATYYCQQADSFPLTFGGGTKVEIK	0.1	–
XPA23 light chain R31V (Fab, V domains shown) VH: EVQLLESGGGLVQPGGSLRLSCAASGFTFSKYFMFWVRQAPGKGLEWVSVISPSGGMTRYADSVKGRFTISRDNSKNTLYLQMNSLRAEDTAVYYCARVGYGGNSDYWGQGTLVTVSS VL: DIQMTQSPSSVSASVGDRLTIICRASQDINVWLAWYQQTPGNAPKLLIHSATSLQSGVPSRFSGSGSGTDFTLTINSLQPEDFATYYCQQADSFPLTFGGGTKVEIK	0.44	–
XPA23 light chain S50H (Fab, V domains shown) VH: EVQLLESGGGLVQPGGSLRLSCAASGFTFSKYFMFWVRQAPGKGLEWVSVISPSGGMTRYADSVKGRFTISRDNSKNTLYLQMNSLRAEDTAVYYCARVGYGGNSDYWGQGTLVTVSS VL: DIQMTQSPSSVSASVGDRLTIICRASQDINRWLAWYQQTPGNAPKLLIHHATSLQSGVPSRFSGSGSGTDFTLTINSLQPEDFATYYCQQADSFPLTFGGGTKVEIK	0.05	–
XPA23 light chain R31Q (Fab, V domains shown) VH: EVQLLESGGGLVQPGGSLRLSCAASGFTFSKYFMFWVRQAPGKGLEWVSVISPSGGMTRYADSVKGRFTISRDNSKNTLYLQMNSLRAEDTAVYYCARVGYGGNSDYWGQGTLVTVSS VL: DIQMTQSPSSVSASVGDRLTIICRASQDINQWLAWYQQTPGNAPKLLIHSATSLQSGVPSRFSGSGSGTDFTLTINSLQPEDFATYYCQQADSFPLTFGGGTKVEIK	0.27	–
XPA23 light chain R31N (Fab, V domains shown) VH: EVQLLESGGGLVQPGGSLRLSCAASGFTFSKYFMFWVRQAPGKGLEWVSVISPSGGMTRYADSVKGRFTISRDNSKNTLYLQMNSLRAEDTAVYYCARVGYGGNSDYWGQGTLVTVSS VL: DIQMTQSPSSVSASVGDRLTIICRASQDINNWLAWYQQTPGNAPKLLIHSATSLQSGVPSRFSGSGSGTDFTLTINSLQPEDFATYYCQQADSFPLTFGGGTKVEIK	0.38	–
XPA23 light chain S50E (Fab, V domains shown) VH: EVQLLESGGGLVQPGGSLRLSCAASGFTFSKYFMFWVRQAPGKGLEWVSVISPSGGMTRYADSVKGRFTISRDNSKNTLYLQMNSLRAEDTAVYYCARVGYGGNSDYWGQGTLVTVSS VL: DIQMTQSPSSVSASVGDRLTIICRASQDINRWLAWYQQTPGNAPKLLIHEATSLQSGVPSRFSGSGSGTDFTLTINSLQPEDFATYYCQQADSFPLTFGGGTKVEIK	0.02	–
XPA23 light chain S50I (Fab, V domains shown) VH: EVQLLESGGGLVQPGGSLRLSCAASGFTFSKYFMFWVRQAPGKGLEWVSVISPSGGMTRYADSVKGRFTISRDNSKNTLYLQMNSLRAEDTAVYYCARVGYGGNSDYWGQGTLVTVSS VL: DIQMTQSPSSVSASVGDRLTIICRASQDINRWLAWYQQTPGNAPKLLIHIATSLQSGVPSRFSGSGSGTDFTLTINSLQPEDFATYYCQQADSFPLTFGGGTKVEIK	0.25	–
XPA23 light chain R31W (Fab, V domains shown) VH: EVQLLESGGGLVQPGGSLRLSCAASGFTFSKYFMFWVRQAPGKGLEWVSVISPSGGMTRYADSVKGRFTISRDNSKNTLYLQMNSLRAEDTAVYYCARVGYGGNSDYWGQGTLVTVSS VL: DIQMTQSPSSVSASVGDRLTIICRASQDINWWLAWYQQTPGNAPKLLIHSATSLQSGVPSRFSGSGSGTDFTLTINSLQPEDFATYYCQQADSFPLTFGGGTKVEIK	0.43	–
XPA23 light chain S50G (Fab, V domains shown) VH: EVQLLESGGGLVQPGGSLRLSCAASGFTFSKYFMFWVRQAPGKGLEWVSVISPSGGMTRYADSVKGRFTISRDNSKNTLYLQMNSLRAEDTAVYYCARVGYGGNSDYWGQGTLVTVSS VL: DIQMTQSPSSVSASVGDRLTIICRASQDINRWLAWYQQTPGNAPKLLIHGATSLQSGVPSRFSGSGSGTDFTLTINSLQPEDFATYYCQQADSFPLTFGGGTKVEIK	0.14	–

Other lines, results leading:

fold difference in affinity vs original [fold]	binding result	Binder
–	no binding	XPA23 light chain S50D (Fab, V domains shown) VH: EVQLLESGGGLVQPGGSLRLSCAASGFTFSKYFMFWVRQAPGKGLEWVSVISPSGGMTRYADSVKGRFTISRDNSKNTLYLQMNSLRAEDTAVYYCARVGYGGNSDYWGQGTLVTVSS VL: DIQMTQSPSSVSASVGDRLTIICRASQDINRWLAWYQQTPGNAPKLLIHDATSLQSGVPSRFSGSGSGTDFTLTINSLQPEDFATYYCQQADSFPLTFGGGTKVEIK
–	no binding	XPA23 light chain S50R (Fab, V domains shown) VH: EVQLLESGGGLVQPGGSLRLSCAASGFTFSKYFMFWVRQAPGKGLEWVSVISPSGGMTRYADSVKGRFTISRDNSKNTLYLQMNSLRAEDTAVYYCARVGYGGNSDYWGQGTLVTVSS VL: DIQMTQSPSSVSASVGDRLTIICRASQDINRWLAWYQQTPGNAPKLLIHRATSLQSGVPSRFSGSGSGTDFTLTINSLQPEDFATYYCQQADSFPLTFGGGTKVEIK
–	no binding	XPA23 light chain S50F (Fab, V domains shown) VH: EVQLLESGGGLVQPGGSLRLSCAASGFTFSKYFMFWVRQAPGKGLEWVSVISPSGGMTRYADSVKGRFTISRDNSKNTLYLQMNSLRAEDTAVYYCARVGYGGNSDYWGQGTLVTVSS VL: DIQMTQSPSSVSASVGDRLTIICRASQDINRWLAWYQQTPGNAPKLLIHFATSLQSGVPSRFSGSGSGTDFTLTINSLQPEDFATYYCQQADSFPLTFGGGTKVEIK
0.25	–	XPA23 light chain S50N (Fab, V domains shown) VH: EVQLLESGGGLVQPGGSLRLSCAASGFTFSKYFMFWVRQAPGKGLEWVSVISPSGGMTRYADSVKGRFTISRDNSKNTLYLQMNSLRAEDTAVYYCARVGYGGNSDYWGQGTLVTVSS VL: DIQMTQSPSSVSASVGDRLTIICRASQDINRWLAWYQQTPGNAPKLLIHNATSLQSGVPSRFSGSGSGTDFTLTINSLQPEDFATYYCQQADSFPLTFGGGTKVEIK
–	no binding	XPA23 light chain S50P (Fab, V domains shown) VH: EVQLLESGGGLVQPGGSLRLSCAASGFTFSKYFMFWVRQAPGKGLEWVSVISPSGGMTRYADSVKGRFTISRDNSKNTLYLQMNSLRAEDTAVYYCARVGYGGNSDYWGQGTLVTVSS VL: DIQMTQSPSSVSASVGDRLTIICRASQDINRWLAWYQQTPGNAPKLLIHPATSLQSGVPSRFSGSGSGTDFTLTINSLQPEDFATYYCQQADSFPLTFGGGTKVEIK
–	no binding	XPA23 light chain R31Y (Fab, V domains shown) VH: EVQLLESGGGLVQPGGSLRLSCAASGFTFSKYFMFWVRQAPGKGLEWVSVISPSGGMTRYADSVKGRFTISRDNSKNTLYLQMNSLRAEDTAVYYCARVGYGGNSDYWGQGTLVTVSS VL: DIQMTQSPSSVSASVGDRLTIICRASQDINYWLAWYQQTPGNAPKLLIHSATSLQSGVPSRFSGSGSGTDFTLTINSLQPEDFATYYCQQADSFPLTFGGGTKVEIK
–	no binding	XPA23 light chain R31P (Fab, V domains shown) VH: EVQLLESGGGLVQPGGSLRLSCAASGFTFSKYFMFWVRQAPGKGLEWVSVISPSGGMTRYADSVKGRFTISRDNSKNTLYLQMNSLRAEDTAVYYCARVGYGGNSDYWGQGTLVTVSS VL: DIQMTQSPSSVSASVGDRLTIICRASQDINPWLAWYQQTPGNAPKLLIHSATSLQSGVPSRFSGSGSGTDFTLTINSLQPEDFATYYCQQADSFPLTFGGGTKVEIK
0.21	–	XPA23 light chain S50Q (Fab, V domains shown) VH: EVQLLESGGGLVQPGGSLRLSCAASGFTFSKYFMFWVRQAPGKGLEWVSVISPSGGMTRYADSVKGRFTISRDNSKNTLYLQMNSLRAEDTAVYYCARVGYGGNSDYWGQGTLVTVSS VL: DIQMTQSPSSVSASVGDRLTIICRASQDINRWLAWYQQTPGNAPKLLIHQATSLQSGVPSRFSGSGSGTDFTLTINSLQPEDFATYYCQQADSFPLTFGGGTKVEIK
